According to article PMC5988984:

Target: HIV-1 reverse transcriptase p66 (HIV-1)
Assay: SEC

HIV-1 reverse transcriptase p66 (enzyme)
stoichiometry N: 2
